Experimental findings from paper PMC4207802 are described below.

Assay [1] addresses T1 – FSHR-HinR/TSHR (human) (UniProt P16473).
Assay [2] concerns the target T3 – TSHR-LRR11/FSHR (human) (UniProt P16473).
For assay [3], the target named is T4 – TSHR-LRR10/FSHR (human) (UniProt P16473).

“recombinant human thyrotropin (rhTSH) (from UniProt P01215 25-116; P01222 21-132) (ligand)”: the values for the EC50 of intracellular cAMP accumulation in transfected COS-7 cells, rhTSH dose-response in assay [1], in assay [2] and in assay [3] were 0.4 mU/ml, 3.8 mU/ml and 11.6 mU/ml, respectively. In addition, the intracellular cAMP accumulation in transfected COS-7 cells, rhTSH 0–100 mU/ml; value at 100 mU/ml came out at 57.2 nM in assay [1], 32.9 nM in assay [2] and 36.6 nM in assay [3].
